Laboratory results as given in patent US20110201077.

Tested on: recombinant streptokinase produced with the pET21b expression construct (double-mutant, plasmin-resistant, polyhistidine-tagged)

| Substance | streptokinase proteolysis followed by Western blot, 1:1 mole ratio (data not shown) | conversion of recombinant plasminogen to recombinant plasmin, time course on reducing SDS-PAGE, 100:1 mole ratio plasminogen:streptokinase |
| --- | --- | --- |
| recombinant plasmin | a very stable streptokinase fragment was generated, even at t=18 hours into the reaction | – |
| recombinant plasminogen | – | At t=18 hours into the reaction, nearly all of the recombinant plasminogen had been converted to recombinant plasmin |
